Source: patent publication US20210024610A1 (Hoffmann-La Roche, published 2021)
Where two headings read alike, the source gives them in different places.

Legend:
Assay in all cases: cell-based or functional assay
[1] = molecular target: T1, human 4-1BB expressed on cells (Jurkat-hu4-1BB-NFκB-luc2 reporter cells; human T cells in PBMC) (human, UniProt Q07011 24-255); parameters: unit not given beside the values
[2] = molecular target: T1, human 4-1BB expressed on cells …
[3] = molecular target: T1, human 4-1BB expressed on cells …; remark: listed apart in the source
[4] = molecular target: T1, human 4-1BB expressed on cells …; remark: listed apart in the source

T1 sequence (Q07011 24-255): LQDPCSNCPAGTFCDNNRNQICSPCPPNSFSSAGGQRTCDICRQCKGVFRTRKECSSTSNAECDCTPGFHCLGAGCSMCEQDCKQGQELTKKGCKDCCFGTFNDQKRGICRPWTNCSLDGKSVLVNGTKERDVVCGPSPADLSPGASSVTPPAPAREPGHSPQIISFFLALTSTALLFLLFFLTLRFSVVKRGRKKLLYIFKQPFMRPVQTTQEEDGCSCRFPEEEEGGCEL

AUC above background, PBMC activation assay, % proliferating CD4 [1]: 10 | AUC above background, PBMC activation assay, % proliferating CD8 [1]: 16 | EC50 of NFκB-activation-induced Luciferase activity, Jurkat-hu4-1BB-NFκB-luc2 reporter cells, with NCI-N87 cells [2]: 140 pM | EC50 PBMC activation assay, % proliferating CD4, with NCI-N87 cells [3]: 10 pM | EC50 PBMC activation assay, % proliferating CD8, with NCI-N87 cells [3]: ~30 pM | EC50 of NFκB-activation-induced Luciferase activity, Jurkat-hu4-1BB-NFκB-luc2 reporter cells, with KPL-4 cells [4]: 20 pM | EC50 of NFκB-activation-induced Luciferase activity, Jurkat-hu4-1BB-NFκB-luc2 reporter cells, with NCI-N87 cells [4]: 20 pM | EC50 of NFκB-activation-induced Luciferase activity, Jurkat-hu4-1BB-NFκB-luc2 reporter cells, with SK-Br3 cells [4]: 10 pM
B1: anti-human 4-1BB clone 20H4.9 human IgG4 (antibody, V domains shown)
VH: QVQLQQWGAGLLKPSETLSLTCAVYGGSFSGYYWSWIRQSPEKGLEWIGEINHGGYVTYNPSLESRVTISVDTSKNQFSLKLSSVTAADTAVYYCARDYGPGNYDWYFDLWGRGTLVTVSS
VL: EIVLTQSPATLSLSPGERATLSCRASQSVSSYLAWYQQKPGQAPRLLIYDASNRATGIPARFSGSGSGTDFTLTISSLEPEDFAVYYCQQRSNWPPALTFCGGTKVEIKR
